Publication PMC11589570 (Nature Communications, 2024)
No end group written: not given here.

Tests used:
Conditions in all cases: both partners purified
[1] = biological target: LC3A_(1-120) (human, UniProt Q9H492 1-120); assay: fluorescence polarisation; direct titration: 30 nM Cy5-labelled p62 LIR probe, purified LC3/GABARAPs titrated from 55 µM to 600 pM; 50 mM HEPES pH 7.5, 150 mM NaCl, 5 % glycerol, 1 mM TCEP, 0.05% TWEEN20; 1 h at room temperature; 384-well plate
[2] = biological target: GABARAP_(1-116) (human, UniProt O95166 1-116); assay: fluorescence polarisation; tracer displacement: 30 nM Cy5-labelled p62 LIR probe with 4 µM LC3/GABARAPs, small-molecule compounds titrated from 20 µM to 20 nM; same assay buffer; 1 h at room temperature
[3] = biological target: GABARAPL1_(1-117) (human, UniProt Q9H0R8 1-117); assay: as above
[4] = biological target: LC3C_(1-126) (human, UniProt Q9BXW4 1-126); assay: as above
[5] = biological target: LC3B_(1-120) (human, UniProt Q9GZQ8 1-120); assay: as above
[6] = biological target: GABARAPL2_(1-117) (human, UniProt P60520 1-117); assay: as above

Measured: binding result

B1: fluorescently labeled p62 LIR probe (SDNSSGGDDDWTHLSSK-Cy5) (peptide)
peptide: SDNSSGGDDDWTHLSSK-Cy5
notes: also called p62 LIR peptide linked to a Cy5 fluorophore; tracer
binds: all assays above
